The source of these data is the supplement of paper PMC11875167.

A short description of the data set: observed amide hydrogen exchange rate constant kobs (stretched exponential fit, FD-normalized) (s^-1); higher = faster H/D exchange (less protection). The following applies: pH 3 (pH read); temperature: 20 °C; D2O: 88%. The gist of the method:
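Uptake curves were fitted to a stretched single exponential with β = 0.8, and kobs, the observed exchange rate constant, is the fitted rate. The data came from Jurkat tryptic peptides (LysC/trypsin, carbamidomethylated cysteines) labeled in 88% D2O at pHread 3, 20 °C, then quenched with 0.23% formic acid at 13 times from 18 to 93,600 s in processing triplicates. MS1 uptake from a Q-Exactive HF, analyzed in HDExaminer with no back-exchange correction, was normalized to full-deuteration controls (24 h, 37 °C).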
For IKGEHPGLSIGDVAK, the “observed amide hydrogen exchange rate constant kobs” value came out at 0.00174. In the case of SYDVPPPPMEPDHPFYSNISK it was 0.00134. As to ALELTGLK, the “observed amide hydrogen exchange rate constant kobs” value is 0.00115. In the case of MVLVGDVK it was 0.000602; in that of IETIEVMEDR, 0.00148; in that of ALENDPDCR, 0.00109. In the case of LQAALDDEEAGGRPAMEPGNGSLDLGGDSAGR it was 0.00232.

With LISWYDNEFGYSNR, the “observed amide hydrogen exchange rate constant kobs” value came out at 0.00164. In the case of ELGIWEPLAVK, the “observed amide hydrogen exchange rate constant kobs” value is 0.000742. In the case of DIFQEIFDK it was 0.00131; in that of DALSDLALHFLNK, 0.00125; in that of IEDLSQQAQLAAAEK, 0.0009. In the case of FNVWDTAGQEK it was 0.00146; in that of AQVARPGGDTIFGK, 0.00115; in that of IMNTFSVVPSPK, 0.000631. Then IITLTGPTNAIFK, with 0.000716. Consider TLVLLMGK, for which the “observed amide hydrogen exchange rate constant kobs” value was 0.000552. In the case of AVDSQILPK it was 0.000865; in that of AVLVDLEPGTMDSVR, 0.00126. Turning to SVPTSTVFYPSDGVATEK, the “observed amide hydrogen exchange rate constant kobs” value turned out to be 0.000911.

For the substance TYSYLTPDLWK, the “observed amide hydrogen exchange rate constant kobs” value is 0.000805.

Turning to IYVGNLPPDIR, the “observed amide hydrogen exchange rate constant kobs” value was 0.00116. Consider RFDDAVVQSDMK, for which the “observed amide hydrogen exchange rate constant kobs” value is 0.00151.

As for LIDDMVAQVLK, the “observed amide hydrogen exchange rate constant kobs” value worked out at 0.000612. On to YNQLLR, for which the “observed amide hydrogen exchange rate constant kobs” value worked out at 0.000842. Then ELLDLLYK, with 0.000866; and AVFVDLEPTVIDEVR, with 0.000889. As for RVLIAAHGNSLR, the “observed amide hydrogen exchange rate constant kobs” value worked out at 0.00149. In the case of EESGKPGAHVTVK it was 0.00233. In the case of ATENDIANFFSPLNPIR it was 0.000823; in that of AVTEQGAELSNEER, 0.00216.

As for GFGFVTYATVEEVDAAMNARPHK, the “observed amide hydrogen exchange rate constant kobs” value was found to be 0.00098. VHLVGIDIFTGK: the “observed amide hydrogen exchange rate constant kobs” value stood at 0.00113. In the case of HALIIYDDLSK, the “observed amide hydrogen exchange rate constant kobs” value was 0.00058.

For NPDDITQEEYGEFYK, the “observed amide hydrogen exchange rate constant kobs” value was found to be 0.00161. Then QEMQEVQSSR, with 0.00166.

VTLDWAK: the “observed amide hydrogen exchange rate constant kobs” value stood at 0.00095. In the case of NIPGITLLNVSK it was 0.000585; in that of EIIDLVLDR, 0.00103.

Take TLNDELEIIEGMK: the “observed amide hydrogen exchange rate constant kobs” value came out at 0.000994. Then ATISNDGATILK, with 0.00117; and EGVHGGLINKK, with 0.0019.

Turning to GDEEGVPAVVIDMSGLR, the “observed amide hydrogen exchange rate constant kobs” value is 0.00109. Then SNEILTAIIQGMR, with 0.000423; and LYQSAGGMPGGMPGGFPGGGAPPSGGASSGPTIEEVD, with 0.00113. Consider VSHVSTGGGASLELLEGK, for which the “observed amide hydrogen exchange rate constant kobs” value was 0.000818. Then IAIYELLFK, with 0.000527; and IWDLEGK, with 0.00103. Turning to STGGAPTFNVTVTK, the “observed amide hydrogen exchange rate constant kobs” value stood at 0.000782. FSHEEIAMATVTALRR: the “observed amide hydrogen exchange rate constant kobs” value was found to be 0.000978. In the case of VVDLLAPYAK it was 0.000767. For VETGVLKPGMVVTFAPVNVTTEVK, the “observed amide hydrogen exchange rate constant kobs” value was 0.000574. For the substance AGKPVICATQMLESMIK, the “observed amide hydrogen exchange rate constant kobs” value was determined as 0.00088. Turning to YLTVAAVFR, the “observed amide hydrogen exchange rate constant kobs” value was 0.000527. In the case of VTIAQGGVLPNIQAVLLPK it was 0.000495; in that of TDTGEPMGR, 0.00239; in that of FEDENFILK, 0.00131. In the case of LTLHGLQQYYVK it was 0.000933; in that of VELLLK, 0.000604; in that of RLNINAAK, 0.000596. Then EKPYFPIPEEYTFIQNVPLEDR, with 0.000754; and AFLASPEYVNLPINGNGK, with 0.000869. With LDIDSPPITAR, the “observed amide hydrogen exchange rate constant kobs” value was 0.00107. In the case of AMGIMNSFVNDIFER it was 0.00109; in that of TIIPLISQCTPK, 0.000921; in that of VLDFEHFLPMLQTVAK, 0.000855.

In the case of IFGGLDMLAEK, the “observed amide hydrogen exchange rate constant kobs” value worked out at 0.00145. Regarding VRVELSNGEK, the “observed amide hydrogen exchange rate constant kobs” value was 0.00127. With ESTLHLVLR, the “observed amide hydrogen exchange rate constant kobs” value stood at 0.00129.

Regarding VLNTNIDGR, the “observed amide hydrogen exchange rate constant kobs” value was 0.00162. On to LGEWVGLCK, for which the “observed amide hydrogen exchange rate constant kobs” value came to 0.000773. In the case of DRVTDALNATR it was 0.000789; in that of FFEVILIDPFHK, 0.000722. Regarding VYVGNLGNNGNK, the “observed amide hydrogen exchange rate constant kobs” value is 0.00211. Then DLTDYLMK, with 0.00113; and ALTSELANAR, with 0.00115. As to VFSGLVSTGLK, the “observed amide hydrogen exchange rate constant kobs” value is 0.00112. In the case of FGYVDFESAEDLEK, the “observed amide hydrogen exchange rate constant kobs” value was 0.00214. In the case of QFLFRPWDVTK it was 0.000828; in that of TEWLDGK, 0.00181; in that of PMPNPNPNHPSSSGSFSDADLADGVSGGEGK, 0.00261. In the case of FAQPGSFEYEYAMR it was 0.00134; in that of TITLEVEPSDTIENVK, 0.001; in that of GPSSVEDIK, 0.00156. For the substance AIADTGANVVVTGGK, the “observed amide hydrogen exchange rate constant kobs” value is 0.00115. In the case of TIAPALVSK it was 0.000597; in that of AAQEEYVK, 0.00112; in that of EDSVKPGAHLTVK, 0.00181.

Turning to NLDIERPTYTNLNR, the “observed amide hydrogen exchange rate constant kobs” value worked out at 0.00136. Turning to QSKPVTTPEEIAQVATISANGDK, the “observed amide hydrogen exchange rate constant kobs” value worked out at 0.000917.

Take GFGFVLFK: the “observed amide hydrogen exchange rate constant kobs” value worked out at 0.000656. In the case of SYELPDGQVITIGNER it was 0.000908; in that of GCITIIGGGDTATCCAK, 0.00119. In the case of EITALAPSTMK it was 0.000944. In the case of SQIHDIVLVGGSTR it was 0.00136. Regarding LIINSLYK, the “observed amide hydrogen exchange rate constant kobs” value turned out to be 0.00064. Then YIDQEELNK, with 0.00207; and GILAADESTGSIAK, with 0.00166.

In the case of NWMNSLGVNPR, the “observed amide hydrogen exchange rate constant kobs” value is 0.000991. In the case of YYVTIIDAPGHR it was 0.00127; in that of HQGVMVGMGQK, 0.00127.

Consider EQGVLSFWR, for which the “observed amide hydrogen exchange rate constant kobs” value was found to be 0.00106. Then IFGVTTLDIVR, with 0.000765; and EDSQRPGAHLTVK, with 0.00212; and EAEAAIYHLQLFEELRR, with 0.00102. In the case of RSELIAK it was 0.000984; in that of GIGYLK, 0.00124; in that of YAVLYQPLFDK, 0.000677.

VVVSGLPPSGSWQDLK: the “observed amide hydrogen exchange rate constant kobs” value came to 0.000996. In the case of LAHEVGWK it was 0.00169; in that of GFGFVDFNSEEDAK, 0.00238. In the case of IIDVVYNASNNELVR it was 0.00138; in that of ALWFQGR, 0.00126; in that of DNSTMGYMMAK, 0.00115. As for GLFIIDDK, the “observed amide hydrogen exchange rate constant kobs” value is 0.00107. With SIYGEK, the “observed amide hydrogen exchange rate constant kobs” value was 0.00146. Turning to TENLLGSYFPK, the “observed amide hydrogen exchange rate constant kobs” value was determined as 0.00102. For the substance SLTNDWEDHLAVK, the “observed amide hydrogen exchange rate constant kobs” value worked out at 0.00185.

As for VLLPEYGGTK, the “observed amide hydrogen exchange rate constant kobs” value came to 0.00144. As for AELNEFLTR, the “observed amide hydrogen exchange rate constant kobs” value came out at 0.00113.

As for IGEHTPSALAIMENANVLAR, the “observed amide hydrogen exchange rate constant kobs” value came to 0.000813. In the case of IISSIEQK it was 0.00126. In the case of AVELAANTK it was 0.00114; in that of ARFEELNADLFR, 0.00175. Then SGYLAGDK, with 0.00168; and LMIEMDGTENK, with 0.00222; and TATESFASDPILYRPVAVALDTK, with 0.000776. For the substance YLNFFTK, the “observed amide hydrogen exchange rate constant kobs” value came to 0.00107. With LNLVQR, the “observed amide hydrogen exchange rate constant kobs” value was 0.000854. For the substance RNTTIPTK, the “observed amide hydrogen exchange rate constant kobs” value was determined as 0.00112.
